Measured values published in patent publication US20030148958A1 (PROCTER AND GAMBLE, published 2003).
Ends that are not written are not given here.

T1: CRF2R
T1 sequence (Q13324 whole entry, species assumed, looked up): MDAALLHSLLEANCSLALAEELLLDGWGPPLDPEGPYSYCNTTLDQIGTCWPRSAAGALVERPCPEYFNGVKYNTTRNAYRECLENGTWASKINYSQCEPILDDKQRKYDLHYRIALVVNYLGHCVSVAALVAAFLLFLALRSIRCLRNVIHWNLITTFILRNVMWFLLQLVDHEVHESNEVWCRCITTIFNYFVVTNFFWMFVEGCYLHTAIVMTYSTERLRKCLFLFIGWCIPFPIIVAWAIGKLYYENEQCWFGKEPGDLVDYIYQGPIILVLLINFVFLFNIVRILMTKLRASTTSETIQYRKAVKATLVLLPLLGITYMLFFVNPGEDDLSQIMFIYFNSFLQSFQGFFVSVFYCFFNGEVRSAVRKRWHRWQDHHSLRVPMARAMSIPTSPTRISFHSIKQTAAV


Assays:
CRF2R = target: T1, CRF2R; test: cell-based or functional assay
CRF1R = test: cell-based or functional assay
For CRF1R Emax % in this document: reference of the scale not given here.
For CRF2R Emax % in this document: reference of the scale not given here.

| Binder | CRF2R EC50 (CRF2R) [nM] | CRF2R Emax % (CRF2R) [%] | CRF1R EC50 (CRF1R) [nM] | CRF1R Emax % (CRF1R) [%] |
| --- | --- | --- | --- | --- |
| ZGPPISIDLPYQLLRKMIEIEKQEKEKQQAANNARLLAR (C-terminal amide) [SEQ ID NO 287] | 11.3 | 100 | 1000 |  |
| ZGPPISIDLPYQLLRKMIEIEKQEKEKQQAANNARLLAR (C-terminal amide) [SEQ ID NO 288] | 14.7 | 100 | 838 |  |
| ZGPPISIDLPFQLLRKVIEIEKQEKEKQQAANNAELLAEI (not fully specified; C-terminal amide) [SEQ ID NO 272] | 23.3 | 100 | 1000 | 51.1 |
| ZGPPISIDLPIFLLRKVIEIEKQEKEKQQAANNARLLARI (C-terminal amide) [SEQ ID NO 281] | 100 | 78.8 | 1000 | 12.2 |
| ZGPPISIDLPFQLLRKVIEIEKQEKEKQQAANNAHLLAHI (C-terminal amide) [SEQ ID NO 277] | 28.2 | 100 | 1000 | 39.9 |
| ZGPPISIDLPFQLLRKVIEIEKQEKEKQQAANNAQLLAQI (not fully specified; C-terminal amide) [SEQ ID NO 276] | 22.1 | 100 | 1000 | 75.7 |
| ZGPPISIDLPIILLRKMIEIEKQEKEKQQAANNARLLARI (C-terminal amide) [SEQ ID NO 290] | 100 | 100 | 1000 | 6.4 |
| ZGPPISIDLPFQLLRKVIEIEKQEKEKQQAANNAKLLAKI (not fully specified; C-terminal amide) [SEQ ID NO 274] | 13.8 | 100 | 508 | 80.9 |
| ZGPPISIDLPTWLLRKVIEIEKQEKEKQQAANNARLLARI (C-terminal amide) [SEQ ID NO 291] | 100 | 63.8 | 1000 | 4.75 |
| ZGPPISIDLPYQLLRKVIEIEKQEKEKQQAANNARLLARI (C-terminal amide) [SEQ ID NO 286] | 13.5 | 92.5 | 1000 | 19.2 |
| ZGPPISIDLPFQLLRKVIEIEKQEKEKQQAANNARLLDTI (C-terminal amide) [SEQ ID NO 278] | 19.6 | 100 | 1000 | 48.7 |
| ZGPPISIDLPFQLLRKVIEIEKQEKEKQQAANNAQLLAHI (not fully specified; C-terminal amide) [SEQ ID NO 273] | 31.3 | 100 | 1000 | 59.3 |
| ZGPPISIDLPTWLLRKMIEIEKQEKEKQQAANNARLLARI (C-terminal amide) [SEQ ID NO 292] | 100 | 86.1 | 1000 | 7 |
| ZGPPISIDLPFQLLRKVIEIEKQEKEKQQAANNANLLANI (not fully specified; C-terminal amide) [SEQ ID NO 275] | 46.6 | 100 | 1000 | 38.3 |
| ZGPPISIDLPIFLLRKVIEIEKQEKEKQQAANNALLLATI (not fully specified; C-terminal amide) [SEQ ID NO 280] | 100 | 82.3 | 1000 | 11.8 |
| ZGPPISIDLPYWLLRKMIEIEKQEKEKQQAANNARLLARI (C-terminal amide) [SEQ ID NO 289] | 12.2 | 97.3 | 1000 | 69.5 |
| ZGPPISIDLPIFLLRKMIEIEKQEKEKQQAANNARLLARI (not fully specified; C-terminal amide) [SEQ ID NO 282] | 25.8 | 60.8 | 1000 | 21.8 |
| ZGPPISIDLPFQLLRKVIEIEKQEKEKQQAANNARLLARI (not fully specified; C-terminal amide) [SEQ ID NO 279] | 13.1 | 100 | 1000 | 93 |
| ZGPPISIDLPQILLRKMIEIEKQEKEKQQAANNARLLARI (C-terminal amide) [SEQ ID NO 285] | 13.9 | 97.1 | 1000 | 11.1 |
| ZGPPISIDLPYQLLRKVIEIEKQEKEKQQAANNRLLLDTI (C-terminal amide) [SEQ ID NO 283] | 10.6 | 72 | 635 | 100 |
| NDDPPISIDLPLYLLRNMIEMARIENEREQAGLNAKYLAEV-NH2 [SEQ ID NO 271] | 48.1 | 69 | 815 | 80.7 |
| ZGPPISIDLPTWLLRKVIEIEKQEKEKQQAANNRLLLDTI (C-terminal amide) [SEQ ID NO 284] | 100 | 100 | 1000 | 27.7 |
| ZGPPISIDLPQILLRKVIEIEKQEKEKQQAANNRLLLDTI (C-terminal amide) [SEQ ID NO 293] | 40.3 | 87 | 520 | 95.3 |

Continued, values first:

| CRF2R EC50 (CRF2R) [nM] | CRF2R Emax % (CRF2R) [%] | CRF1R EC50 (CRF1R) [nM] | CRF1R Emax % (CRF1R) [%] | Binder |
| --- | --- | --- | --- | --- |
| 100 | 100 | 1000 | 13.6 | ZGPPISIDLPQILLRKVIEIEKQEKEKQQAANNARLLARI (C-terminal amide) [SEQ ID NO 294] |
| 55 | 67.6 | 1000 | 5.3 | ZGPPISIDLPIILLRKVIEIEKQEKEKQQAANNARLLARI (C-terminal amide) [SEQ ID NO 295] |
| 82 | 98.8 | 1000 | 20.1 | ZGPPISIDLPIFLLRKMIEIEKQEKEKQQAANNALLLATI (C-terminal amide) [SEQ ID NO 298] |
| 46.4 | 71.5 | 1000 | 10.2 | ZGPPISIDLPQILLRKVIEIEKQEKEKQQAANNALLLATI (C-terminal amide) [SEQ ID NO 299] |
| 27.6 | 100 | 608 | 97.7 | ZGPPISIDLPIALLRKMIEIEKQEKEKQQAANNRLLLDTI (C-terminal amide) [SEQ ID NO 306] |
| 100 | 88.3 | 1000 | 27.2 | ZGPPISIDLPIILLRKVIEIEKQEKEKQQAANNRLLLDTI (C-terminal amide) [SEQ ID NO 297] |
| 36.2 | 100 | 366 | 100 | ZGPPISIDLPQALLRKMIEIEKQEKEKQQAANNRLLLDTI (C-terminal amide) [SEQ ID NO 302] |
| 19.3 | 92.5 | 116 | 100 | ZGPPISIDLPHALLRKMIEIEKQEKEKQQAANNRLLLDTI (C-terminal amide) [SEQ ID NO 304] |
| 50.5 | 88.4 | 690 | 84.1 | ZGPPISIDLPTALLRKMIEIEKQEKEKQQAANNRLLLDTI (C-terminal amide) [SEQ ID NO 301] |
| 27.2 | 100 | 582 | 100 | ZGPPISIDLPAALLRKMIEIEKQEKEKQQAANNRLLLDTI (C-terminal amide) [SEQ ID NO 303] |
| 5.82 | 96.5 | 78.4 | 92.7 | ZGPPISIDLPFALLRKMIEIEKQEKEKQQAANNRLLLDTI (C-terminal amide) [SEQ ID NO 307] |
| 35.5 | 95.2 | 1000 | 59.5 | ZGPPISIDLPVALLRKMIEIEKQEKEKQQAANNRLLLDTI (C-terminal amide) [SEQ ID NO 305] |
| 17.1 | 100 | 1000 | 7.95 | IVLSLDVPIGLLQKVIEIEKQEKEKQQATTNARILARV-NH2 [SEQ ID NO 300] |
| 6.66 | 65 | 100 | 4 | HHHHHHIVLSLDVPIGLLQILLEQARARAAREQATTNARILARN-NH2 [SEQ ID NO 296] |
